Laboratory results: US20020168748

Tests used:
[1] = biological target: PKC1 tagged at its COOH-terminus with the HA epitope (PKC1^HA) (UniProt P24583)
[2] = biological target: 1,3-β-glucan synthase (GS) complex (UniProt P38631)
1,3-β-glucan synthase (GS) complex, sequence (P38631 whole entry, looked up, one chain of several): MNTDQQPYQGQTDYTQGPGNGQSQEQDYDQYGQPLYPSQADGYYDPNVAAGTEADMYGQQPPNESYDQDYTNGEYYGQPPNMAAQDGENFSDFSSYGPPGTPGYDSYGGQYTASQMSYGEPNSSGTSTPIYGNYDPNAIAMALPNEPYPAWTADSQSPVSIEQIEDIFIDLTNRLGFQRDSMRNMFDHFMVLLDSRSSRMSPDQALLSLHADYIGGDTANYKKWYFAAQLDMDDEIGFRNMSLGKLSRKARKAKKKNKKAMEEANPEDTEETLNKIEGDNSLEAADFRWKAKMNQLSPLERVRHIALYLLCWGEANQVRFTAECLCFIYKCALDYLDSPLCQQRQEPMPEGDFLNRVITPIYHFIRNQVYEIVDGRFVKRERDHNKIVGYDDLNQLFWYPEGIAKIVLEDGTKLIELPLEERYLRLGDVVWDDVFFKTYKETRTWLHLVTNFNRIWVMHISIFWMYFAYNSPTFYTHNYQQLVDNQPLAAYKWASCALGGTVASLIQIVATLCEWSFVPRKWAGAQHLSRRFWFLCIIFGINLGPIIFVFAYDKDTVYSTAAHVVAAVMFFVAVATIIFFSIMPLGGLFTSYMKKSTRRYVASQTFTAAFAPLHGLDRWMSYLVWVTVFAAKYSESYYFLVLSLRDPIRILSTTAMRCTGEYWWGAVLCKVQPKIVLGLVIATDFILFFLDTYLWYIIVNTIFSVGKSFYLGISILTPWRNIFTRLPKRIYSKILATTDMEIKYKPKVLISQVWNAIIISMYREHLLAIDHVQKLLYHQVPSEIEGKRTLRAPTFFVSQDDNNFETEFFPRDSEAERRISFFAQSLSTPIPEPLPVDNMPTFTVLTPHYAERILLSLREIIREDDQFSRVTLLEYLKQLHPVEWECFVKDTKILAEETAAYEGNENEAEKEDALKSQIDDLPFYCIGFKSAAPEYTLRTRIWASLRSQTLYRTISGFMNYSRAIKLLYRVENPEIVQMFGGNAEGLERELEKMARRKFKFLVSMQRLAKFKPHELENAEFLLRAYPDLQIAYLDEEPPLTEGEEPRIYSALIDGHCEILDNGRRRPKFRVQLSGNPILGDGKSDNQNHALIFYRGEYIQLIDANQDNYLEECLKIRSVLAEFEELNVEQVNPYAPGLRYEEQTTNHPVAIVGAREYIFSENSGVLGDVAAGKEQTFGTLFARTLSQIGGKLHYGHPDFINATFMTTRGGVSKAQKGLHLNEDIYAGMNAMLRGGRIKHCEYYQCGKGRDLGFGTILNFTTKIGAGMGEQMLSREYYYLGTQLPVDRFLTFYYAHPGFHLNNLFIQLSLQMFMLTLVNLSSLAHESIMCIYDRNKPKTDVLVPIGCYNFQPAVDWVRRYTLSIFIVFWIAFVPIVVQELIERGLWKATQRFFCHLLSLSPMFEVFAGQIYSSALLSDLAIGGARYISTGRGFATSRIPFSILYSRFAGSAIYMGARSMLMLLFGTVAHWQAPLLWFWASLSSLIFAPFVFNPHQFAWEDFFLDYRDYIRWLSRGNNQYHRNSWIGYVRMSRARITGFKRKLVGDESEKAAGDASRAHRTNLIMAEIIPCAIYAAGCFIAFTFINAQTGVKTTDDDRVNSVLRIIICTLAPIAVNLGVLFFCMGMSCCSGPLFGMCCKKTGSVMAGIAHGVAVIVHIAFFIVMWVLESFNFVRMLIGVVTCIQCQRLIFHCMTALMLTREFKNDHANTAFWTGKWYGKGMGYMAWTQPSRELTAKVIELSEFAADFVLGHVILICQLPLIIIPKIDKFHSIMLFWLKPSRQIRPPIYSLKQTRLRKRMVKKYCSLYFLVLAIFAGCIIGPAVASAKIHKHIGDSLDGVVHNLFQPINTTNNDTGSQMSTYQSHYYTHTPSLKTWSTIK

PKC1 tagged at its COOH-terminus with the HA epitope (PKC1^HA), sequence (P24583 whole entry): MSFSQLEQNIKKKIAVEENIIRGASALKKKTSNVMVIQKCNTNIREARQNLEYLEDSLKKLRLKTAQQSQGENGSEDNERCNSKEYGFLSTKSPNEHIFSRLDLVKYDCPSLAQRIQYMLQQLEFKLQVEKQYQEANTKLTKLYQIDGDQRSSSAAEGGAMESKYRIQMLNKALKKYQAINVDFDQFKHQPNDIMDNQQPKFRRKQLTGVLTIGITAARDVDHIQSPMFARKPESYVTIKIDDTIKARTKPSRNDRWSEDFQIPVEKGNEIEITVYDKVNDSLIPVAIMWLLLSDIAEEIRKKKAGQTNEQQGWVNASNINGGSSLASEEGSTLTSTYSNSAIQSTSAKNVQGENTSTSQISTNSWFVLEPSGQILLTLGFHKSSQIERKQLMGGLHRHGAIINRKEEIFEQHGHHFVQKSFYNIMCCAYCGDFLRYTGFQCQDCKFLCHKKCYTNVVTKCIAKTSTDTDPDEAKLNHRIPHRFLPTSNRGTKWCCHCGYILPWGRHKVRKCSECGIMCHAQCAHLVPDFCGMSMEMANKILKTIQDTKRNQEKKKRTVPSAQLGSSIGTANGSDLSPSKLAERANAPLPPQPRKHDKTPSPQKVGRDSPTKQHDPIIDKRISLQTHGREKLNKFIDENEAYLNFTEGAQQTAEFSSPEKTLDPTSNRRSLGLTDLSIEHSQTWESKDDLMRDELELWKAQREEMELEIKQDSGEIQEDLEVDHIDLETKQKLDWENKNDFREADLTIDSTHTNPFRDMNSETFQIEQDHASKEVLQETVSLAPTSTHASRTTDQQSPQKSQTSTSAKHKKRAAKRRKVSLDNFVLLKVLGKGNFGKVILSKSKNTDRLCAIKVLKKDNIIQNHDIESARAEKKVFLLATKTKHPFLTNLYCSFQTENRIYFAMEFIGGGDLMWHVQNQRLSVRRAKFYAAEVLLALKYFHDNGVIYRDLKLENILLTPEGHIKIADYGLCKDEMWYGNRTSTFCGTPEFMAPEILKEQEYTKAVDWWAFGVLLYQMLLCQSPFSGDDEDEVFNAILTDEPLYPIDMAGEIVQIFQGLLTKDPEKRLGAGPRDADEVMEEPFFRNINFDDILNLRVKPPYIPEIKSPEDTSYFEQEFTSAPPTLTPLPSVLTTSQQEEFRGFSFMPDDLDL

Row | Substance | Phosphorylation of synthetic Bck1 peptide by PKC1^HA [1] | GS activity in the membrane fraction of the cal1-1 mutant [2]
1 | Recombinant GST-Cdc42 | GST-Cdc42 did not confer cofactor-dependent stimulation on PKC1 | –
2 | Recombinant mutant Rho1 (G19V), constitutively active GST-Rho1 | – | GS activity was restored by the addition of constitutively activated Rho1
